Test system: Escherichia coli TOP10
Test: shrunken log2 fold change of peptide-encoding DNA abundance (4.5 h post-induction vs induction); higher = less antimicrobial activity (less host growth inhibition)
Conditions: time post-induction: 4.5 h; library: site-saturation at positions 5, 18, 19, 20
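Note: peptides expressed intracellularly from a pBAD plasmid library in pooled LB shake-flask culture, induced with 0.3% L-arabinose, DNA abundance read by NGS, three biological replicates, DESeq2 with apeglm shrinkage.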

| Sequence | shrunken log2 fold change |
| --- | --- |
| RRIRLRPPRLPRPRPRPCCPPRP | -0.196 |
| RRIRLRPPRLPRPRPRPCCYPRP | -0.611 |
| RRIRLRPPRLPRPRPRPCDIPRP | -0.0237 |
| RRIRLRPPRLPRPRPRPCHQPRP | -0.234 |
| RRIRLRPPRLPRPRPRPCHVPRP | -0.412 |
| RRIRLRPPRLPRPRPRPCIIPRP | -0.394 |
| RRIRLRPPRLPRPRPRPCKKPRP | -0.149 |
| RRIRLRPPRLPRPRPRPCKRPRP | -0.0962 |
| RRIRLRPPRLPRPRPRPCKWPRP | 0.117 |
| RRIRLRPPRLPRPRPRPCLCPRP | -0.0557 |
| RRIRLRPPRLPRPRPRPCMGPRP | -0.085 |
| RRIRLRPPRLPRPRPRPCMIPRP | -0.21 |
| RRIRLRPPRLPRPRPRPCNFPRP | -0.0369 |
| RRIRLRPPRLPRPRPRPCQDPRP | 0.0219 |
| RRIRLRPPRLPRPRPRPCQIPRP | -0.102 |
| RRIRLRPPRLPRPRPRPCRHPRP | -0.601 |
| RRIRLRPPRLPRPRPRPCSGPRP | 0.0583 |
| RRIRLRPPRLPRPRPRPCTAPRP | -0.139 |
| RRIRLRPPRLPRPRPRPCTPPRP | -0.172 |
| RRIRLRPPRLPRPRPRPCVFPRP | -0.13 |
| RRIRLRPPRLPRPRPRPCWFPRP | -0.21 |
| RRIRLRPPRLPRPRPRPCYEPRP | -0.284 |
| RRIRLRPPRLPRPRPRPCYIPRP | -0.115 |
| RRIRLRPPRLPRPRPRPCYPPRP | -0.661 |
| RRIRLRPPRLPRPRPRPCYSPRP | -0.142 |

| Sequence | shrunken log2 fold change |
| --- | --- |
| RRIRLRPPRLPRPRPRPDECPRP | 0.0277 |
| RRIRLRPPRLPRPRPRPDEDPRP | 0.0258 |
| RRIRLRPPRLPRPRPRPDFEPRP | -0.0246 |
| RRIRLRPPRLPRPRPRPDGEPRP | -0.00819 |
| RRIRLRPPRLPRPRPRPDHNPRP | -0.00288 |
| RRIRLRPPRLPRPRPRPDIMPRP | -0.0927 |
| RRIRLRPPRLPRPRPRPDKLPRP | -0.266 |
| RRIRLRPPRLPRPRPRPDKPPRP | -0.228 |
| RRIRLRPPRLPRPRPRPDMCPRP | -0.0164 |
| RRIRLRPPRLPRPRPRPDNHPRP | -0.519 |
| RRIRLRPPRLPRPRPRPDNMPRP | -0.519 |
| RRIRLRPPRLPRPRPRPDSPPRP | -0.119 |
| RRIRLRPPRLPRPRPRPDSQPRP | -0.117 |
| RRIRLRPPRLPRPRPRPDSWPRP | -0.139 |
| RRIRLRPPRLPRPRPRPDTQPRP | 0.0809 |
| RRIRLRPPRLPRPRPRPDVCPRP | 0.0271 |
| RRIRLRPPRLPRPRPRPDWPPRP | -0.0804 |
| RRIRLRPPRLPRPRPRPDWQPRP | -0.0564 |
| RRIRLRPPRLPRPRPRPDYGPRP | -0.23 |
| RRIRLRPPRLPRPRPRPDYQPRP | -0.137 |
| RRIRLRPPRLPRPRPRPEACPRP | -0.0158 |
| RRIRLRPPRLPRPRPRPEAHPRP | -0.187 |
| RRIRLRPPRLPRPRPRPECDPRP | -0.00082 |
| RRIRLRPPRLPRPRPRPEDCPRP | 0.0408 |
| RRIRLRPPRLPRPRPRPEDSPRP | -0.0351 |

| Sequence | shrunken log2 fold change |
| --- | --- |
| RRIRLRPPRLPRPRPRPEFFPRP | 0.02 |
| RRIRLRPPRLPRPRPRPEFQPRP | -0.0134 |
| RRIRLRPPRLPRPRPRPEGTPRP | 0.241 |
| RRIRLRPPRLPRPRPRPELQPRP | 0.328 |
| RRIRLRPPRLPRPRPRPENYPRP | -0.041 |
| RRIRLRPPRLPRPRPRPEPDPRP | 0.342 |
| RRIRLRPPRLPRPRPRPEPLPRP | 0.0706 |
| RRIRLRPPRLPRPRPRPEQCPRP | -0.0243 |
| RRIRLRPPRLPRPRPRPEQKPRP | 0.0115 |
| RRIRLRPPRLPRPRPRPERKPRP | -0.0366 |
| RRIRLRPPRLPRPRPRPESHPRP | -0.118 |
| RRIRLRPPRLPRPRPRPESPPRP | 0.124 |
| RRIRLRPPRLPRPRPRPETPPRP | 0.178 |
| RRIRLRPPRLPRPRPRPETSPRP | -0.0221 |
| RRIRLRPPRLPRPRPRPEVNPRP | 0.0855 |
| RRIRLRPPRLPRPRPRPEWCPRP | -0.131 |
| RRIRLRPPRLPRPRPRPEWKPRP | -0.16 |
| RRIRLRPPRLPRPRPRPEYFPRP | -0.0957 |
| RRIRLRPPRLPRPRPRPFACPRP | 0.119 |
| RRIRLRPPRLPRPRPRPFAHPRP | -0.367 |
| RRIRLRPPRLPRPRPRPFARPRP | -0.00783 |
| RRIRLRPPRLPRPRPRPFCMPRP | -0.623 |
| RRIRLRPPRLPRPRPRPFEAPRP | -0.256 |
| RRIRLRPPRLPRPRPRPFERPRP | 0.198 |
| RRIRLRPPRLPRPRPRPFFMPRP | -0.369 |
